From patent US20090016988

What was measured:
[1] = system: MPPT5 (proaerolysin with the MMP2 site HPVGLLAR joined by a GG linker to the uPA site SGRSAQ in the)
[2] = system: MPPT4 (proaerolysin with the activation sequence KVRRAR changed to the MMP2 site HPVGLLAR, 6xHis tag)
[3] = system: wild-type proaerolysin from Aeromonas hydrophila
[4] = system: MPPT1 (proaerolysin with the furin site KVRRAR replaced by the uPA site SGRSAQ, and a His tag)

Substance: active MMP2 protease (EMD/Calbiochem)
- Hemolytic titer after MMP2 digestion (hemolytic titer (wells with lysed cells)) [1]: 6.5
- digestion with MMP2 (Western blot, 48 hour incubation samples) [2]: complete digestion for MPPT4
- digestion with MMP2, 24 hours (silver stained SDS-PAGE) [2]: complete digestion for MPPT4 for all concentrations shown
- Hemolytic titer after MMP2 digestion (hemolytic titer (wells with lysed cells)) [3]: 0
- digestion with MMP2 (Western blot, 48 hour incubation samples) [3]: less than 50% digestion for PA
- digestion with MMP2, 2 hours (silver stained SDS-PAGE) [3]: PA is not measurably affected by MMP2
- digestion with MMP2, 24 hours (silver stained SDS-PAGE) [3]: a small amount of digestion for PA

Substance: urokinase-type plasminogen activator (uPA)
- Hemolytic titer, 0.016 mg/mL uPA (hemolytic titer (wells with lysed cells)) [4]: 6
- Hemolytic titer, 0.04 mg/mL uPA (hemolytic titer (wells with lysed cells)) [4]: 7.5
- Hemolytic titer, 0.08 mg/mL uPA (hemolytic titer (wells with lysed cells)) [4]: 7.5
- activation by uPA digestion (Coomassie stained SDS-PAGE) [4]: the MPPT1 sample digested with 1 µg of uPA showed an activated aerolysin band (˜48 kDa; lowest band), and a high molecular weight oligomer band
- conversion to aerolysin by 0.016 mg/mL uPA (SDS-PAGE) [4]: MPPT1 was nearly 50% converted
- digestion with uPA, 120 minutes (Coomassie stained SDS-PAGE) [4]: After 120 minutes, the MPPT1 is almost completely activated by 0.04 mg/mL uPA
- Hemolytic titer after uPA digestion (hemolytic titer (wells with lysed cells)) [1]: 7
- Hemolytic titer after uPA digestion (hemolytic titer (wells with lysed cells)) [3]: 5
- Hemolytic titer, 0.016 mg/mL uPA (hemolytic titer (wells with lysed cells)) [3]: 0
- Hemolytic titer, 0.04 mg/mL uPA (hemolytic titer (wells with lysed cells)) [3]: 2.5
- Hemolytic titer, 0.08 mg/mL uPA (hemolytic titer (wells with lysed cells)) [3]: 6
- activation by uPA digestion (Coomassie stained SDS-PAGE) [3]: No activated aerolysin band, and only a very faint high molecular weight oligomer band, was seen for the PA sample digested with 1 µg of uPA
- conversion to aerolysin by 0.016 mg/mL uPA (SDS-PAGE) [3]: No PA was converted to aerolysin when treated with 0.016 mg/mL uPA under these conditions
- digestion with uPA, 2 hours (silver stained SDS-PAGE) [3]: it is somewhat sensitive to uPA, though not to the degree seen for MPPT5
- digestion with uPA, 120 minutes (Coomassie stained SDS-PAGE) [3]: whereas much less PA was activated
